The values that follow come from patent US20260265321A1, “PEPTIDE AND POLYPEPTIDE INHIBITING THE NF-KB SIGNALING PATHWAY” (Centre National de la Recherche Scientifique, priority 2023, published 2026).

Residues, ends and D or L forms follow the SMILES beside them.

The target in assay [1] is T1, IKKα(10-667) EE homodimer (Homo sapiens, UniProt O15111, S176E/S180E).
T1 construct: an equivalent construct of the IKKα homodimer (i.e. IKKα(10-667) S176E/S180E, named IKKα(10-667) EE hereafter); 6×His (followed by TEV site) (N, cleaved yes); made in house; host or cells: Sf21 insect cells (baculovirus)
T1 sequence (O15111 10-667 S176E/S180E): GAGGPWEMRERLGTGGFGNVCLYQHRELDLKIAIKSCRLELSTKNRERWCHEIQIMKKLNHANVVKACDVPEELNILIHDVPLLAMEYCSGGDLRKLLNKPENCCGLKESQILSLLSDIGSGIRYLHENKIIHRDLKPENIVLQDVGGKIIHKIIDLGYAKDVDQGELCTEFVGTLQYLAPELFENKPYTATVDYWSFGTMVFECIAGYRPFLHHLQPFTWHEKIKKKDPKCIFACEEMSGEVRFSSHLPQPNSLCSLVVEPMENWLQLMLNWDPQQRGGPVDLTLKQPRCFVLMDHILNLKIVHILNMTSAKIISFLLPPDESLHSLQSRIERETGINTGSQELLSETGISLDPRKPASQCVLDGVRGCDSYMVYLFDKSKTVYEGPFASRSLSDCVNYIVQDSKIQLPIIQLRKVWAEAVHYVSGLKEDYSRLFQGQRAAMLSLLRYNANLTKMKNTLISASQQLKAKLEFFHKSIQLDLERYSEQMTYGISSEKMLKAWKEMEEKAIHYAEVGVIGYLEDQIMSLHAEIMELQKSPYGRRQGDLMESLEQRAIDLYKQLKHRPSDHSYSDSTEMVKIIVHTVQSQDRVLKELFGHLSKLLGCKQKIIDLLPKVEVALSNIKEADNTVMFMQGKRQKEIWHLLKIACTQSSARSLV
The assay can be described thus: Isothermal titration calorimetry (ITC) of peptide binding to IKKα homodimer. The note with it: 25° C.; for N (binding stoichiometry of IKKα: pep): 1:1 binding model; for TΔS / ΔG / ΔH: IKKα. On the procedure:
All experiments were performed in ITC buffer (20 mM HEPES pH 8.0, 150 mM NaCl, 1 mM TCEP) unless otherwise stated. Purified IKKα(10-667) EE and IKKβ(1-669) EE protein samples were dialyzed overnight against ITC buffer at 4° C. Just before the ITC experiments, IKKα or IKKβ samples were concentrated, incubated at room temperature for 30 minutes and centrifuged at 11000 g to remove eventual precipitate. The final concentrations of IKKα and IKKβ in the sample cell varied between 22 and 50 μM depending on the measurement. HPLC purified synthetic peptides (IκBα pep) comprising residues 297-317 of IκBα were further desalted using a Nap5 (GE Healthcare, #17-0853-01) column equilibrated in milliQ water, lyophilized and then resuspended in ITC buffer. The concentration of peptides in the syringe varied between 220 and 975 μM depending on the measurement.
All ITC measurements were performed using a PEAQ-ITC MALVERN instrument. The titration parameters were set as following: temperature 25° C., reference power 10 μcal/s, feedback=high, stirring speed 750 RPM, initial delay 60 s, first injection 0.4 μl in 0.8 s and the remaining 19 injections were 2 μL in 4 s with 120 s of spacing. The data were fitted to a 1:1 binding model. All data were processed using NITPIC software and global fitting of two datasets was carried out using SEDPHAD.
To evaluate binding affinities, isothermal titration calorimetry (ITC) experiments were performed using a synthetic peptide that comprises the YDDφXφ motif plus the N-terminal acidic patch (residues 297-317, named IκBα pep hereafter) and purified IKKβ(1-669) EE homodimer or an equivalent construct of the IKKα homodimer (i.e. IKKα(10-667) S176E/S180E, named IKKα(10-667) EE hereafter). […] ITC analyses on the IKKα/β heterodimer were prevented by strong aggregation propensity at the concentrations required for these experiments.
All ITC experiments were performed at 25° C. The data were fitted to a 1:1 binding model. N refers to the binding stoichiometry of IKKα/β: pep, meaning that approximately half of total IKKα/β concentration binds pep ligand in agreement with the dimer form of IKKα/β being binding competent. The values for the IKKα interaction with IRF7 pep should be regarded as estimates due to low affinity and weakly exothermic binding, and therefore high experimental error and fitting uncertainty. All data were processed using NITPIC software and global fitting of two datasets was carried out using SEDPHAD.

In assay [2] the target is T2, IKKα(10-667) S176E/S180E homodimer, 6×His tag removed (human, UniProt O15111 10-667).
T2 construct: also called purified IKKα
T2 sequence (looked up): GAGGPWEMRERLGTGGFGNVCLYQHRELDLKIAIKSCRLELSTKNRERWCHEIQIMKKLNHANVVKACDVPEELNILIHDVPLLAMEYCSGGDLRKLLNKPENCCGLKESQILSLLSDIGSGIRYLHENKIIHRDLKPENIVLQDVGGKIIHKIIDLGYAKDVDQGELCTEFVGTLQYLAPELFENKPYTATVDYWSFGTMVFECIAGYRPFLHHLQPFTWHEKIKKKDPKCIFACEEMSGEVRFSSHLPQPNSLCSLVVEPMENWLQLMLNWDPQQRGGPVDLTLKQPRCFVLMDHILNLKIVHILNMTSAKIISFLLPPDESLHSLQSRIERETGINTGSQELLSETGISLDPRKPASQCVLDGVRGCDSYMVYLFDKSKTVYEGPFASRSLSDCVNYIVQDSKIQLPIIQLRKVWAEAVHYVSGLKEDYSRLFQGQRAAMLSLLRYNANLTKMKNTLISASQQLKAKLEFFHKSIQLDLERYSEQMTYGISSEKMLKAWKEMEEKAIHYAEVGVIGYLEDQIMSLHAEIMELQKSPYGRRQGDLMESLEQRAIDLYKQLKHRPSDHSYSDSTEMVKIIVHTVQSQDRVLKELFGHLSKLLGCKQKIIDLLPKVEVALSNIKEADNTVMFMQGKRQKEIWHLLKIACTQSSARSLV
The assay can be described thus: ITC, 25 °C, synthetic peptide into IKK homodimer, 1:1 model. On the procedure:
(§1) All experiments were performed in ITC buffer (20 mM HEPES pH 8.0, 150 mM NaCl, 1 mM TCEP) unless otherwise stated. […] Just before the ITC experiments, IKKα or IKKβ samples were concentrated, incubated at room temperature for 30 minutes and centrifuged at 11000 g to remove eventual precipitate. The final concentrations of IKKα and IKKβ in the sample cell varied between 22 and 50 μM depending on the measurement. […] The concentration of peptides in the syringe varied between 220 and 975 μM depending on the measurement.
(§2) All ITC experiments were performed at 25° C. The data were fitted to a 1:1 binding model. […] All data were processed using NITPIC software and global fitting of two datasets was carried out using SEDPHAD.

The target in assay [3] is T3, IKKβ(1-669) S177E/S181E homodimer, 6×His tag removed (human, UniProt O14920 1-669).
T3 sequence (looked up): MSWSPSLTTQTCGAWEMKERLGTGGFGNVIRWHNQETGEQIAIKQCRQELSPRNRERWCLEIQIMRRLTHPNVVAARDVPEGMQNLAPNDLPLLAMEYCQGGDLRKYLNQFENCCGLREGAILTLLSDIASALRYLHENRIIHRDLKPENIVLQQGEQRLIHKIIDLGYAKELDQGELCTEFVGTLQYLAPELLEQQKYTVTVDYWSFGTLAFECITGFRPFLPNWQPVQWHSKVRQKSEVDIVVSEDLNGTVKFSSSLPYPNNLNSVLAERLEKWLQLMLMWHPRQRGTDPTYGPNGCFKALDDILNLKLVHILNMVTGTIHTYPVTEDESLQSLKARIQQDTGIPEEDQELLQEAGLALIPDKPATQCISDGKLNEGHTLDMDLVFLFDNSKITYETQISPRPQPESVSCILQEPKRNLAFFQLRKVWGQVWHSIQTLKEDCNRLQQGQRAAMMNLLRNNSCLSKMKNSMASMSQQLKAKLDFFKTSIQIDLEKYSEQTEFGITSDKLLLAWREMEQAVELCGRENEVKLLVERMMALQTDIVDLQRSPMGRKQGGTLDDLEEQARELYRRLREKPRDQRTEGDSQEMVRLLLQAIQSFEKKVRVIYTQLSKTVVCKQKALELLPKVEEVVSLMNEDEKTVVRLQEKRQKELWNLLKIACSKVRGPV
Described as above. The protocol: as §1, §2

For the molecule `CC[C@H](C)[C@H](NC(=O)[C@H](CC(=O)O)NC(=O)[C@H](CC(=O)O)NC(=O)[C@H](Cc1ccc(O)cc1)NC(=O)[C@H](CC(C)C)NC(=O)[C@H](CO)NC(=O)[C@H](CC(N)=O)NC(=O)[C@H](C)NC(=O)[C@H](CO)NC(=O)[C@H](CO)NC(=O)[C@@H](N)CC(C)C)C(=O)N[C@@H](CCC(=O)O)C(=O)N[C@@H](CS)C(=O)N[C@@H](Cc1ccccc1)C(=O)N[C@@H](CC(C)C)C(=O)N[C@@H](CCSC)C(=O)N[C@@H](CCC(=O)O)C(=O)N[C@@H](CC(C)C)C(=O)N[C@@H](CCC(=O)O)C(=O)N[C@@H](CCC(N)=O)C(=O)N1CCC[C@H]1C(=O)N[C@@H](C)C(=O)O` [IRF7 pep] (H-LSSANSLYDDIECFLMELEQPA-OH; N-terminus and C-terminus assumed), in assay [1], the “N (binding stoichiometry of IKKα: pep)” value was 0.6, the TΔS is -1.2 kcal/mol, the ΔG is -5.5 kcal/mol and the ΔH is -6.7 kcal/mol.
Regarding `CC[C@H](C)[C@H](NC(=O)CNC(=O)[C@H](CC(=O)O)NC(=O)[C@H](CC(C)C)NC(=O)CN)C(=O)N[C@H](C(=O)N[C@@H](CCC(=O)O)C(=O)N[C@@H](Cc1ccc(O)cc1)C(=O)N[C@@H](CC(=O)O)C(=O)N[C@@H](CC(=O)O)C(=O)N[C@@H](Cc1ccccc1)C(=O)N[C@@H](CCCCN)C(=O)N[C@@H](CC(C)C)C(=O)N[C@@H](CC(N)=O)C(=O)N[C@@H](CO)C(=O)N[C@@H](CO)C(=O)N[C@H](C(=O)N[C@H](C(=O)N[C@@H](CCC(=O)O)C(=O)N1CCC[C@H]1C(=O)N[C@@H](CCCCN)C(=O)N[C@@H](CCC(=O)O)C(=O)O)C(C)C)[C@@H](C)CC)[C@@H](C)CC` [p100 pep] (H-GLDGIIEYDDFKLNSSIVEPKE-OH; N-terminus and C-terminus assumed), in assay [1], the “N (binding stoichiometry of IKKα: pep)” value is on record as 0.60, the TΔS is -5.56 kcal/mol, the ΔG was -6.77 kcal/mol and the ΔH was -12.3 kcal/mol.

B1: synthetic IκBα pep wt (residues 297-317 of IκBα) (peptide)
peptide: EFTEDELPYDDCVFGGQRLTL
notes: HPLC purified synthetic peptide; also called IkBα pep wt; P1
With B1, in assay [2], the “N (binding stoichiometry)” value is 0.62, the TΔS was -8.35 kcal/mol, the ΔG was -6.88 kcal/mol and the ΔH is -15.2 kcal/mol. Moreover, in assay [3], the “N (binding stoichiometry)” value came out at 0.58, the TΔS was -9.78 kcal/mol, the ΔG is -6 kcal/mol and the ΔH was -15.8 kcal/mol.
In the case of GLDGIIEYDDFKLNSSIVEPKE [synthetic p100 pep], in assay [2], the Kd is 11 µM, the “N (binding stoichiometry)” value turned out to be 0.6, the TΔS is -5.56 kcal/mol and the ΔG is -6.77 kcal/mol. In assay [2], the ΔH is -12.3 kcal/mol.
